Residue numbers refer to the chain shown, from its start. Names may count otherwise.
B1: humanized antibody No. 76 (antibody, human IgG1, kappa)
heavy: QVQLVQSGSELKKPGASVKVSCKASGYTFTDYSMHWVRQAPGQGLKWMGWINTETGEPTYAQGFTGRFVFSLDTSVSTAYLQISSLKAEDTAVYYCARIPLYYYGSRYWYFDVWGQGTTVTVSSASTKGPSVFPLAPSSKSTSGGTAALGCLVKDYFPEPVTVSWNSGALTSGVHTFPAVLQSSGLYSLSSVVTVPSSSLGTQTYICNVNHKPSNTKVDKRVEPKSCDKTHTCPPCPAPPAAAPSVFLFPPKPKDTLMISRTPEVTCVVVDVSHEDPEVQFNWYVDGVEVHNAKTKPREEQFNSTFRVVSVLTVVHQDWLNGKEYKCKVSNKGLPAPIEKTISKTKGQPREPQVYTLPPSREEMTKNQVSLTCLVKGFYPSDIAVEWESNGQPENNYKTTPPMLDSDGSFFLYSKLTVDKSRWQQGNVFSCSVMHEALHNHYTQKSLSLSPG
light: DIQMTQSPSSLSASVGDRVTITCRASENIYRNLAWYQQKPGKAPKLLVYAATNLADGVPSRFSGSGSGTDYTLTISSLQPEDFATYYCQHFWGTPWTFGQGTKVEIKRTVAAPSVFIFPPSDEQLKSGTASVVCLLNNFYPREAKVQWKVDNALQSGNSQESVTEQDSKDSTYSLSSTLTLSKADYEKHKVYACEVTHQGLSSPVTKSFNRGEC
notes: human Ig kappa; also called L1-4/HA2
B2: humanized antibody No. 140 (antibody, human IgG2)
heavy: QVQLVQSGSELKKPGASVKVSCKASGYTFTDYSMHWVRQAPGQGLKWMGWINTETGEPTYAQGFTGRFVFSLDTSVSTAYLQISSLKAEDTAVYYCARIPLYYYGSRYWYFDVWGQGTTVTVSSASTKGPSVFPLAPSSRSTSESTAALGCLVKDYFPEPVTVSWNSGALTSGVHTFPAVLQSSGLYSLSSVVTVPSSNFGTQTYTCNVDHKPSNTKVDKTVERKSCVECPPCPAPPAAAPSVFLFPPKPKDTLMISRTPEVTCVVVDVSHEDPEVQFNWYVDGVEVHNAKTKPREEQFNSTFRVVSVLTVVHQDWLNGKEYKCKVSNKGLPAPIEKTISKTKGQPREPQVYTLPPSREEMTKNQVSLTCLVKGFYPSDIAVEWESNGQPENNYKTTPPMLDSDGSFFLYSKLTVDKSRWQQGNVFSCSVMHEALHNHYTQKSLSLSPG
light: B1 light
notes: as for B1
B3: humanized antibody No. 86 (antibody, human IgG1, kappa)
heavy: B1 heavy with V2I, Q62D, G63D, T65K
light: B1 light with V48L, P80S
notes: human Ig kappa; also called L1-5/HK4
B4: humanized antibody No. 138 (antibody, human IgG2)
heavy: B2 heavy with V2I
light: B1 light
notes: human Ig kappa; also called L1-4/HA4
B5: humanized antibody No. 67 (antibody, human IgG1, kappa)
heavy: B1 heavy with V2I
light: B1 light
notes: as for B4
B6: humanized antibody No. 141 (antibody, human IgG2)
heavy: B2 heavy with K46E, Q62D, G63D, T65K
light: B1 light
notes: human Ig kappa; also called L1-4/HK1
B7: humanized antibody No. 91 (antibody, human IgG1, kappa)
heavy: B1 heavy with Q62D, G63D, T65K
light: B1 light with K45Q, V48L
notes: human Ig kappa; also called L1-6/HK2
B8: humanized antibody No. 82 (antibody, human IgG1, kappa)
heavy: B1 heavy
light: B1 light with V48L, P80S
notes: human Ig kappa; also called L1-5/HA2
B9: humanized antibody No. 81 (antibody, human IgG1, kappa)
heavy: B1 heavy with K46E
light: B1 light with V48L, P80S
notes: human Ig kappa; also called L1-5/HA1
B10: humanized antibody No. 84 (antibody, human IgG1, kappa)
heavy: B1 heavy with K46E, Q62D, G63D, T65K
light: B1 light with V48L, P80S
notes: human Ig kappa; also called L1-5/HK1
B11: humanized antibody No. 83 (antibody, human IgG1, kappa)
heavy: B1 heavy with V2I
light: B1 light with V48L, P80S
notes: human Ig kappa; also called L1-5/HA4
B12: humanized antibody No. 78 (antibody, human IgG1, kappa)
heavy: B1 heavy with Q62D, G63D, T65K
light: B1 light
notes: human Ig kappa; also called L1-4/HK2
B13: humanized antibody No. 85 (antibody, human IgG1, kappa)
heavy: B1 heavy with Q62D, G63D, T65K
light: B1 light with V48L, P80S
notes: human Ig kappa; also called L1-5/HK2
B14: humanized antibody No. 77 (antibody, human IgG1, kappa)
heavy: B1 heavy with K46E, Q62D, G63D, T65K
light: B1 light
notes: as for B6
B15: humanized antibody No. 88 (antibody, human IgG1, kappa)
heavy: B1 heavy
light: B1 light with K45Q, V48L
notes: human Ig kappa; also called L1-6/HA2
B16: humanized antibody No. 75 (antibody, human IgG1, kappa)
heavy: B1 heavy with K46E
light: B1 light
notes: constant region: human IgG1 CH1 and hinge, human IgG2 CH2 and CH3 with V234A, G237A, no C-terminal Lys; human Ig kappa; also called L1-4/HA1
B17: humanized antibody No. 69 (antibody, human IgG1, kappa)
heavy: B1 heavy with V2I, Q62D, G63D, T65K
light: B1 light
notes: human Ig kappa; also called L1-4/HK4
B18: humanized antibody No. 87 (antibody, human IgG1, kappa)
heavy: B1 heavy with K46E
light: B1 light with K45Q, V48L
notes: human Ig kappa; also called L1-6/HA1
B19: humanized antibody No. 139 (antibody, human IgG2)
heavy: B2 heavy with K46E
light: B1 light
notes: human Ig kappa; also called L1-4/HA1
B20: humanized antibody No. 89 (antibody, human IgG1, kappa)
heavy: B1 heavy with V2I
light: B1 light with K45Q, V48L
notes: human Ig kappa; also called L1-6/HA4
B21: humanized antibody No. 90 (antibody, human IgG1, kappa)
heavy: B1 heavy with K46E, Q62D, G63D, T65K
light: B1 light with K45Q, V48L
notes: human Ig kappa; also called L1-6/HK1
B22: humanized antibody No. 92 (antibody, human IgG1, kappa)
heavy: B1 heavy with V2I, Q62D, G63D, T65K
light: B1 light with K45Q, V48L
notes: human Ig kappa; also called L1-6/HK4

Molecular target: T1, human EphA4 extracellular region-SEAP-His protein (human, UniProt P54764 20-547)
T1 construct: also called hEphA4-SEAP-His
Assay: competition ELISA, competitor human Ephrin A5-Fc
Description: Each anti-EphA4 monoclonal humanized antibody obtained in Example 16 was evaluated for its inhibitory activity against the binding between human EphA4 and its human ligand according to the following steps. Each well of a 96-well plate (Nunc) was coated with an anti-alkaline phosphatase antibody (Thermo Fisher Scientific). After incubation overnight at 4° C., each well was blocked with 1% BlockAce (DS Pharma Biomedical) at room temperature for 1 hour. After washing with 0.05% Tween 20/PBS (Thermo Fisher Scientific) three times, the human EphA4 extracellular region-SEAP-His protein obtained by the method of Example 2 was added (final concentration: 10 nM) to each well and incubated at room temperature for 1 hour. After washing three times, a ligand and each serially diluted humanized antibody of antibody A (0, 0.003, 0.01, 0.03, 0.1, 0.3, 1, 3, 10, 30, 100, 300, 1000, and 3000 nM) were added to each well. The ligand used was biotinylated human Ephrin A5-Fc chimera (R&D Systems, final concentration: 0.7 nM). After incubation at room temperature for 1 hour and subsequent washing three times, horseradish peroxidase-labeled streptavidin (GE Healthcare) was added thereto and incubated at room temperature for 1 hour. After washing three times, a TMBZ (3,3′,5,5′-tetramethylbenzidine, Sigma-Aldrich) solution was added to each well and incubated at room temperature for 2 minutes. An equal amount of a reaction stopping solution (1N H₂SO₄, Wako Pure Chemical Industries) was added to each well. The absorbance at 450 nm was read using a microplate reader (PerkinElmer).

T1 sequence (P54764 20-547): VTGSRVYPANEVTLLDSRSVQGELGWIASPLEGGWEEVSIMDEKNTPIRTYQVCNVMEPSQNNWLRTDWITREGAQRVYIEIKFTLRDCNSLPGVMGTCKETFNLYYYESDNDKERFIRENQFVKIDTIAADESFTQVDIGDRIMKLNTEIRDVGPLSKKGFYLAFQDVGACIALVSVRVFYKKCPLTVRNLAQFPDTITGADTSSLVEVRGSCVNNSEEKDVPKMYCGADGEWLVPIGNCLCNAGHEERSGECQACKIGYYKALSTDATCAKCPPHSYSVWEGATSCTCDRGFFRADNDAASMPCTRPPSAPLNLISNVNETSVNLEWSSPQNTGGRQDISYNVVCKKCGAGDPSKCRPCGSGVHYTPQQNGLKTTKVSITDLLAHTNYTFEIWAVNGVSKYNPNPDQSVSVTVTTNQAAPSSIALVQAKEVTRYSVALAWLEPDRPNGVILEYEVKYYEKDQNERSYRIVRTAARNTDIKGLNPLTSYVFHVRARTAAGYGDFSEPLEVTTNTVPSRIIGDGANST

Row | IC50 | Binder
1 | 2.9 nM | B1
2 | 2.4 nM | B2
3 | 4 nM | B3
4 | 2.9 nM | B4
5 | 4.4 nM | B5
6 | 3 nM | B6
7 | 4.9 nM | B7
8 | 4.1 nM | B8
9 | 4 nM | B9
10 | 4.6 nM | B10
11 | 3.7 nM | B11
12 | 2.8 nM | B12
13 | 4 nM | B13
14 | 3.5 nM | B14
15 | 3.6 nM | B15
16 | 2.9 nM | B16
17 | 3.1 nM | B17
18 | 3 nM | B18
19 | 3.3 nM | B19
20 | 4.3 nM | B20
21 | 4.5 nM | B21
22 | 3.5 nM | B22

Molecular target: T1, human EphA4 extracellular …
Assay: SPR, Ab captured
Description: The binding affinity of each anti-EphA4 monoclonal humanized antibody obtained in Example 16 for human EphA4 was determined by surface plasmon resonance (SPR) using Biacore T200 (GE Healthcare). First, for the assay of antibody A, a rat anti-mouse IgG₁ antibody produced with a conventional method by immunizing rat with mouse IgG₁ antibody was immobilized on sensor chip CM5. The immobilization of the rat anti-mouse IgG1 antibody on sensor chip CM5 was performed by the amine coupling method using N-hydroxysuccinimide (NHS) and N-ethyl-N′-(3-dimethylaminopropyl)carbodiimide hydrochloride (EDC). Ethanolamine was used in blocking (the sensor chip and the reagents for immobilization were all manufactured by GE Healthcare). The antibody was diluted with a buffer solution for immobilization (10 mM sodium acetate, pH 4.5) and immobilized on the sensor chip according to the protocol attached to Biacore T200. For the assay of each humanized monoclonal antibody, a protein A chip (GE Healthcare, 29-1383-03) was used. Antibody A or the humanized monoclonal antibody was diluted with a running buffer solution HBS-EP (GE Healthcare), injected onto only flow cell 2 for 120 seconds, and captured (captured amount: approximately 30 to 60 RU). Subsequently, human EphA4 extracellular region-SEAP-His protein serially diluted in the range of 50, 16.7, 5.6, 1.9, and 0.6 nM using HBS-EP was sequentially added from the lower toward higher concentration sides without regeneration operation. Binding reaction curves were sequentially observed at the time of the addition (association phase, for 120 sec) and after the completion of the addition (dissociation phase, for 900 sec). After the completion of each observation, the sensor chip was regenerated by the addition of 3 M MgCl₂ (for 60 sec) or 10 mM Glycine-HCl pH 1.5 (for 30 sec). The obtained binding reaction curves were subjected to fitting analysis with 1:1 binding models using software BIA evaluation attached to the system to calculate the affinity (KD=kd/ka) for human EphA4 (Table 6).

Row | Kd | koff | kon | Binder
23 | 1 nM | 0.00034 s⁻¹ | 330000 M⁻¹ s⁻¹ | B1
24 | 1.4 nM | 0.00043 s⁻¹ | 320000 M⁻¹ s⁻¹ | B2
25 | 1.5 nM | 0.00046 s⁻¹ | 310000 M⁻¹ s⁻¹ | B3
26 | 1.3 nM | 0.00043 s⁻¹ | 330000 M⁻¹ s⁻¹ | B4
27 | 1.1 nM | 0.00035 s⁻¹ | 330000 M⁻¹ s⁻¹ | B5
28 | 1.6 nM | 0.00062 s⁻¹ | 390000 M⁻¹ s⁻¹ | B6
29 | 1.3 nM | 0.00044 s⁻¹ | 330000 M⁻¹ s⁻¹ | B7
30 | 1.6 nM | 0.00046 s⁻¹ | 290000 M⁻¹ s⁻¹ | B8
31 | 1.6 nM | 0.00054 s⁻¹ | 340000 M⁻¹ s⁻¹ | B9
32 | 1.7 nM | 0.00056 s⁻¹ | 350000 M⁻¹ s⁻¹ | B10
33 | 1.9 nM | 0.00054 s⁻¹ | 290000 M⁻¹ s⁻¹ | B11
34 | 1.1 nM | 0.00039 s⁻¹ | 340000 M⁻¹ s⁻¹ | B12
35 | 1.6 nM | 0.0005 s⁻¹ | 310000 M⁻¹ s⁻¹ | B13
36 | 1.4 nM | 0.00058 s⁻¹ | 410000 M⁻¹ s⁻¹ | B14
37 | 1.4 nM | 0.00042 s⁻¹ | 300000 M⁻¹ s⁻¹ | B15
38 | 1.2 nM | 0.00042 s⁻¹ | 380000 M⁻¹ s⁻¹ | B16
39 | 1.1 nM | 0.00037 s⁻¹ | 340000 M⁻¹ s⁻¹ | B17
40 | 1.5 nM | 0.00051 s⁻¹ | 350000 M⁻¹ s⁻¹ | B18
41 | 1.4 nM | 0.00053 s⁻¹ | 370000 M⁻¹ s⁻¹ | B19
42 | 1.3 nM | 0.00041 s⁻¹ | 310000 M⁻¹ s⁻¹ | B20
43 | 1.5 nM | 0.00055 s⁻¹ | 360000 M⁻¹ s⁻¹ | B21
44 | 1.3 nM | 0.00043 s⁻¹ | 330000 M⁻¹ s⁻¹ | B22

— patent publication US20190077860A1 (EISAI R AND D MANAGEMENT, published 2019)
